Where “and” joins values, the source holds several entries; their conditions need not be identical. Identical values can stand only once. Where no end group is shown, it is not given here.
How the values were obtained:
[1] = system: NS20Y neuroblastoma cells; test: Neurite outgrowth of NS20Y neuroblastoma cells; assay type: cell-based; settings: for % Neurites after 24 hours: peptide added at 5 μg/ml, None = 18%
Procedure: NS20Y neuroblastoma cells were grown in Dulbecco's Modified Eagle Medium (DMEM) containing 10% fetal calf serum (FCS) and 1 mM sodium pyruvate. Cells were removed with trypsin and plated in 30 mm petri dishes onto glass coverslips. After 20-24 hours the medium was replaced with DMEM containing 0.5% fetal calf serum plus effector proteins. Cells were cultured for another 24 hours, washed with phosphate buffered saline (PBS) and fixed with Bouin's solution (saturated aqueous picric acid/formalin/acetic acid 15:5:1) for 30 minutes. Fixative was removed with PBS and neurite outgrowth was scored under a phase contrast microscope. […] At least 200 cells were scored in different portions of each dish to determine the percentage of neurite bearing cells and assays were performed in duplicate.

[2] = system: NS20Y proteins; test: Incorporation of 32P into NS20Y proteins; assay type: cell-based; settings: NS20Y cells; effector proteins 0.5-1.0 μg/ml, 10-15 minutes; versus controls or saposins A, B or D
Procedure: NS20Y cells were incubated in phosphate-free Hanks' balanced salt solution containing 2.5 μg/ml actinomycin D and 80-100 μCi/ml carrier-free [^32P]-orthophosphate (New England Nuclear) and effector proteins (0.5-1.0 μg/ml) and incubated for 10-15 minutes at room temperature. Cells were solubilized in SDS-PAGE sample buffer, analyzed by SDS-PAGE and autoradiographed.

[3] = parameters: species or system rats; settings: rat, in vivo
Procedure: An 18-mer peptide consisting of amino acids 12-29 of saposin C with a tyrosine substituted for valine at position 12 was chemically synthesized on an Applied Biosystems Model 430 peptide synthesizer. The peptide was then radioiodinated by the lactoperoxidase method and 20×10^6 cpm were injected into the auricles of rats. The animals were sacrificed after one hour and 24 hours and the hearts were perfused with isotonic saline in order to remove the blood from the brain. The brain was then counted in a gamma counter in order to determine the percentage of peptide uptake. In addition, in the 24 hour experiment the brain was homogenized and separated into a capillary rich fraction (pellet) and a parenchymal brain fraction (supernatant) after dextran centrifugation (Triguero et al., (1990) J. Neurochem., 54: 1882-1888). This method allows for the discrimination between radiolabelled peptide within blood vessels and that within the brain. In the 24 hour experiment, 0.017% of the injected peptide was detected in whole brain, 75% of the label was in the parenchymal fraction and 25% was in the capillary fraction. At 1 hour 0.03% of the injected dose was present in whole brain.

[4] = system: mouse cerebellar explants; test: Neurite outgrowth and myelination in newborn mouse cerebellar explants; assay type: cell-based; settings: prosaposin 5 μg/ml, saposins 10 μg/ml; for cells with long projections at the periphery of the explant: day 15
Procedure: Newborn mouse cerebellar explants were prepared according to Satomi (Zool. Sci. 9, 127-137 (1992)). Neurite outgrowth and myelination were observed over 22 days in culture, during the period when the newborn mouse cerebellum normally undergoes neuronal differentiation and myelination begins. Prosaposin (5 μg/ml) and saposins A, B and C (10 μg/ml) were added on the second day after preparation of the explants (three control and three treated explants) and outgrowth of neurites and myelination were assessed under a bright field microscope with a video camera.

[5] = system: PC12M pheochromocytoma cells; test: Neurite outgrowth from NGF-responsive PC12M cells; assay type: cell-based; settings: high concentrations (2 mg/ml)
Text: Since nerve growth factor (NGF) acts on a variety of cell types, we wanted to determine whether it was involved in prosaposin-mediated outgrowth in neuroblastoma cells.

1-27: synthetic peptide from the human saposin C domain, residues 1-27 (SDVYCEVCEFLVKEVTKLIDNNKTEKE; Saposin-C; UniProt P07602 311-337, looked up, fragment)
% Neurites after 24 hours [1]: 46%

1-40: amino terminal synthetic peptide, residues 1-40 of saposin C (SDVYCEVCEFLVKEVTKLIDNNKTEKEILDAFDKMCSKLP; Saposin-C; UniProt P07602 311-350, looked up, fragment)
neuritogenic activity (in words) [1]: active | % Neurites after 24 hours [1]: 42%

13-34: synthetic peptide from the human saposin C domain, residues 13-34 (KEVTKLIDNNKTEKEILDAFDK; Saposin-C; UniProt P07602 323-344, looked up, fragment)
% Neurites after 24 hours [1]: 50%

21-48: synthetic peptide from the human saposin C domain, residues 21-48 (NNKTEKEILDAFDKMCSKLPKSLSEECQ; Saposin-C; UniProt P07602 331-358, looked up, fragment)
% Neurites after 24 hours [1]: 18%

41-82: carboxy terminal synthetic peptide, residues 41-82 of saposin C (KSLSEECQEVVDTYGSSILSILLEEVSPELVCSMLHLCSGTR; Saposin-C; UniProt P07602 351-392, looked up, fragment)
neuritogenic activity (in words) [1]: inactive | % Neurites after 24 hours [1]: 17%

CEFLVKEVTKLIDNNKTEKEIL [8-29]
phosphorylation of proteins of 148, 100, 80, 68, 50, 38 and 34 kDa (in words) [2]: stimulate phosphorylation | neuritogenic activity (in words) [1]: neuritogenic activity | extent of neurite outgrowth compared with prosaposin or saposin C ([1]; FIG. 1a, higher concentrations required for activity): greater than with prosaposin or saposin C | % Neurites after 24 hours [1]: 56%

NGF: nerve growth factor, a neurotrophin [reference compound]
neuritogenic activity (in words) [1]: no effect on neurite outgrowth | augmentation of the prosaposin neurite outgrowth response ([1]; 5 μg/ml NGF (FIG. 1b)): did not augment the prosaposin response

iodinated 18-mer: amino acids 12-29 of saposin C with tyrosine substituted for valine at position 12 (SEQ ID NO: 5), radioiodinated (YKEVTKLIDNNKTEKEIL; also: radioiodinated)
crossing of the blood brain barrier (in words) [3]: crosses the blood brain barrier | injected peptide detected in whole brain [3]: 0.017% | label in the capillary fraction of brain [3]: 25% | label in the parenchymal fraction of brain [3]: 75% | neuritogenic activity (in words) [1]: neuritogenic activity

B1: saposin B: one of four saposins generated from prosaposin (protein, UniProt P07602 195-273, looked up)
Saposin-B: GDVCQDCIQMVTDIQTAVRTNSTFVQALVEHVKEECDRLGPGMADICKNYISQYSEIAIQMMMHMQPKEICALVGFCDE
modifications: Saposin-B
notes: one of four saposins generated from prosaposin
cells with long projections at the periphery of the explant [4]: less prominent

B2: Saposin A: one of four saposins generated from prosaposin; inactive in neurite outgrowth (protein, UniProt P07602 60-142, looked up)
Saposin-A: SLPCDICKDVVTAAGDMLKDNATEEEILVYLEKTCDWLPKPNMSASCKEIVDSYLPVILDIIKGEMSRPGEVCSALNLCESLQ
modifications: Saposin-A
neuritogenic activity (in words) [1]: inactive | % Neurites after 24 hours [1]: 20% | cells with long projections at the periphery of the explant [4]: less prominent

B3: Prosaposin: 70 kilodalton glycoprotein, precursor of saposins A, B, C and D; human sequence SEQ ID NO:2 (protein)
chain: MYALFLLASLLGAALAGPVLGLKECTRGSAVWCQNVKTASDCGAVKHCLQTVWNKPTVKSLPCDICKDVVTAAGDMLKDNATEEEILVYLEKTCDWLPKPNMSASCKEIVDSYLPVILDIIKGEMSRPGEVCSALNLCESLQKHLAELNHQKQLESNKIPELDMTEVVAPFMANIPLLLYPQDGPRSKPQPKDGDVCQDCIQMVTDIQTAVRTNSTFVQALVEHVKEECDRLGPGMADICKNYISQYSEIAIQMMMHMQPKEICALVGFCDEVKEMPMQTLVPAKVASKNVIPALDLVDPIKKHEVPAKSDVYCEVCEFLVKEVTKLIDNNKTEKEILDAFDKMCSKLPKSLSEECQEVVDTYGSSILSILLEEVSPELVCSMLHLCSGTRLPALTVHVTQPKDGGFCEVCKKLVGTLDRNLEKNSTKQEILAALEKGCSFLPDPYQKQCDQFVAEYEPVLIEILVEVMDPSFVCLKIGACPSAHKPLLGTEKCIWGPSYWCQNTETAAQCNAVEHCKRHVWN
stimulation of neurite outgrowth from PC12M cells [5]: failed to stimulate neurite outgrowth | phosphorylation of proteins of 148, 100, 80, 68, 50, 38 and 34 kDa (in words) [2]: stimulate phosphorylation | neuritogenic activity (in words) [1]: promoted reversible neurite outgrowth | lowest concentration for activity (neurite outgrowth) ([1]; dose-response curve FIG. 1a): 1.4×10^−11 M and 10 ng/ml | time at which retraction of neurite outgrowth was complete after removal ([1]; prosaposin removed): 36 h | appearance of explant cultures on the eighth day ([4]; day 8): thinner and more spread out than control cultures | cells with long projections at the periphery of the explant [4]: many cells with long projections

From patent US6559124B1, “Use of prosaposin and peptides obtained therefrom for treatment of neural degeneration” (Myelos Corporation, priority 1993, dated 2003)
